Measured values published in paper PMC7244493, “Osteogenesis imperfecta mutations in plastin 3 lead to impaired calcium regulation of actin bundling” (Bone Research, 2020).
Residue numbers refer to the chain shown, from its start. Names and notes keep the numbering of the source.

B1: plastin 3 (PLS3), wild type (natural protein)
chain: MDEMATTQISKDELDELKEAFAKVDLNSNGFICDYELHELFKEANMPLPGYKVREIIQKLMLDGDRNKDGKISFDEFVYIFQEVKSSDIAKTFRKAINRKEGICALGGTSELSSEGTQHSYSEEEKYAFVNWINKALENDPDCRHVIPMNPNTDDLFKAVGDGIVLCKMINLSVPDTIDERAINKKKLTPFIIQENLNLALNSASAIGCHVVNIGAEDLRAGKPHLVLGLLWQIIKIGLFADIELSRNEALAALLRDGETLEELMKLSPEELLLRWANFHLENSGWQKINNFSADIKDSKAYFHLLNQIAPKGQKEGEPRIDINMSGFNETDDLKRAESMLQQADKLGCRQFVTPADVVSGNPKLNLAFVANLFNKYPALTKPENQDIDWTLLEGETREERTFRNWMNSLGVNPHVNHLYADLQDALVILQLYERIKVPVDWSKVNKPPYPKLGANMKKLENCNYAVELGKHPAKFSLVGIGGQDLNDGNQTLTLALVWQLMRRYTLNVLEDLGDGQKANDDIIVNWVNRTLSEAGKSTSIQSFKDKTISSSLAVVDLIDAIQPGCINYDLVKSGNLTEDDKHNNAKYAVSMARRIGARVYALPEDLVEVKPKMVMTVFACLMGRGMKRV
notes: plastin 3 (PLS3, T-plastin), human; recombinant wild type, parent of the OI mutants; Modified pColdI vector with a TEV protease site after the 6xHis tag; also called T-plastin; WT PLS3; source: E. coli BL21-CodonPlus(DE3), purified (TALON cobalt resin)
B2: plastin 3 (PLS3) A368D (natural protein)
chain: B1 chain with A368D
notes: plastin 3 (PLS3), human, osteogenesis imperfecta-linked missense mutation A368D in CH2 of ABD1; Patient mutation; also called Ca2+-insensitive mutant; Ca2+-hyposensitive mutant; source: E. coli BL21-CodonPlus(DE3), purified (TALON cobalt resin)
B3: plastin 3 (PLS3) N446S (natural protein)
chain: B1 chain with N446S
notes: plastin 3 (PLS3), human, osteogenesis imperfecta-linked missense mutation N446S in a proline-rich loop of CH3; Patient mutation; also called Ca2+-hypersensitive mutant; source: E. coli BL21-CodonPlus(DE3), purified (TALON cobalt resin)
B4: plastin 3 (PLS3) E249_A250insIMGHSHSGSCLL (natural protein)
chain: MDEMATTQISKDELDELKEAFAKVDLNSNGFICDYELHELFKEANMPLPGYKVREIIQKLMLDGDRNKDGKISFDEFVYIFQEVKSSDIAKTFRKAINRKEGICALGGTSELSSEGTQHSYSEEEKYAFVNWINKALENDPDCRHVIPMNPNTDDLFKAVGDGIVLCKMINLSVPDTIDERAINKKKLTPFIIQENLNLALNSASAIGCHVVNIGAEDLRAGKPHLVLGLLWQIIKIGLFADIELSRNEIMGHSHSGSCLLALAALLRDGETLEELMKLSPEELLLRWANFHLENSGWQKINNFSADIKDSKAYFHLLNQIAPKGQKEGEPRIDINMSGFNETDDLKRAESMLQQADKLGCRQFVTPADVVSGNPKLNLAFVANLFNKYPALTKPENQDIDWTLLEGETREERTFRNWMNSLGVNPHVNHLYADLQDALVILQLYERIKVPVDWSKVNKPPYPKLGANMKKLENCNYAVELGKHPAKFSLVGIGGQDLNDGNQTLTLALVWQLMRRYTLNVLEDLGDGQKANDDIIVNWVNRTLSEAGKSTSIQSFKDKTISSSLAVVDLIDAIQPGCINYDLVKSGNLTEDDKHNNAKYAVSMARRIGARVYALPEDLVEVKPKMVMTVFACLMGRGMKRV
notes: Patient mutation; also called E249_A250insI-L; Ca2+-insensitive mutant; source: E. coli BL21-CodonPlus(DE3), purified (TALON cobalt resin)
B5: plastin 3 (PLS3) A253_L254insN (natural protein)
chain: MDEMATTQISKDELDELKEAFAKVDLNSNGFICDYELHELFKEANMPLPGYKVREIIQKLMLDGDRNKDGKISFDEFVYIFQEVKSSDIAKTFRKAINRKEGICALGGTSELSSEGTQHSYSEEEKYAFVNWINKALENDPDCRHVIPMNPNTDDLFKAVGDGIVLCKMINLSVPDTIDERAINKKKLTPFIIQENLNLALNSASAIGCHVVNIGAEDLRAGKPHLVLGLLWQIIKIGLFADIELSRNEALAANLLRDGETLEELMKLSPEELLLRWANFHLENSGWQKINNFSADIKDSKAYFHLLNQIAPKGQKEGEPRIDINMSGFNETDDLKRAESMLQQADKLGCRQFVTPADVVSGNPKLNLAFVANLFNKYPALTKPENQDIDWTLLEGETREERTFRNWMNSLGVNPHVNHLYADLQDALVILQLYERIKVPVDWSKVNKPPYPKLGANMKKLENCNYAVELGKHPAKFSLVGIGGQDLNDGNQTLTLALVWQLMRRYTLNVLEDLGDGQKANDDIIVNWVNRTLSEAGKSTSIQSFKDKTISSSLAVVDLIDAIQPGCINYDLVKSGNLTEDDKHNNAKYAVSMARRIGARVYALPEDLVEVKPKMVMTVFACLMGRGMKRV
notes: plastin 3 (PLS3), human, osteogenesis imperfecta-linked single-residue insertion A253_L254insN in the CH1-CH2 connecting loop of ABD1; Patient mutation; also called Ca2+-hypersensitive mutant; source: E. coli BL21-CodonPlus(DE3), purified (TALON cobalt resin)
B6: plastin 3 (PLS3) L478P (natural protein)
chain: B1 chain with L478P
notes: plastin 3 (PLS3), human, osteogenesis imperfecta-linked missense mutation L478P in CH3 of ABD2; Patient mutation; also called bundling-deficient mutant; source: E. coli BL21-CodonPlus(DE3), purified (TALON cobalt resin)

The binders below were run against T1, F-actin (chicken skeletal muscle actin, polymerized) (chicken, UniProt P68139 1-377) (assay: cell-based or functional assay). Conditions: not given.

| Binder | F-actin bundling, low-speed (17 000 g) co-sedimentation, [PLS3]50%, Ca^2+ [µmol/L] | F-actin bundling, low-speed (17 000 g) co-sedimentation, [PLS3]50%, EGTA [µmol/L] |
| --- | --- | --- |
| B1 | 2.97 | 0.49 |
| B2 | 0.59 | 0.47 |
| B3 | 6.36 | 0.58 |
| B4 | 0.03 | 0.1 |
| B5 | 2.09 | 0.53 |

Each binder was assayed against T1, F-actin (chicken skeletal muscle actin, …) (assay: co-sedimentation; high-speed co-sedimentation, 300 000 g, 25 °C, 30 min; plastin 5 µmol·L^-1, F-actin varied 1-50 µmol·L^-1; actin polymerized in 2 mmol·L^-1 MgCl2, 30 mmol·L^-1 KCl, 10 mmol·L^-1 HEPES pH 7.0; incubated overnight at 4 °C then 1 h at 25 °C; SDS-PAGE densitometry, fit to a binding isotherm). Conditions: both partners purified.

| Binder | Kd [µM] |
| --- | --- |
| B1 | 7.41 |
| B2 | 4.22 |
| B6 | 2.16 |
| B3 | 4.79 |
| B4 | 2.56 |
| B5 | 3.77 |
